Test results published in patent US20260144882A1 (BIO THERA SOLUTIONS, published 2026).

Legend:
[1] = target: T1, human Nectin-4 extracellular antigen hNectin-4-His (human, UniProt Q96NY8 32-349); experiment: ELISA, phage scFv supernatant 1:50
T1 construct: C-terminal 8xHis tag included
T1 sequence: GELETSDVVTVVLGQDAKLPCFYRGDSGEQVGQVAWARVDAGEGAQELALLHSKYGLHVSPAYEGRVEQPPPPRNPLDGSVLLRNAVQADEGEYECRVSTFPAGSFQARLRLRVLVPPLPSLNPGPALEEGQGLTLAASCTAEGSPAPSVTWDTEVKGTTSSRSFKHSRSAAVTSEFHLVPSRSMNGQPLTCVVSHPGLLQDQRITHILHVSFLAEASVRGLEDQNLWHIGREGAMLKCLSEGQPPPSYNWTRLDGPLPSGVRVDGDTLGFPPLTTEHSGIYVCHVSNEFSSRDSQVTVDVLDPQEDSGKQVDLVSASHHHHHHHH

[2] = target: T1, human Nectin-4 extracellular antigen …; experiment: ELISA, coated hNectin-4-His
Excerpt: The binding activity of the antibodies was detected by ELISA.

[3] = target: T1, human Nectin-4 extracellular antigen …; experiment: SPR, antibody on Protein A chip, 1:1 fit
Excerpt: In this study, the affinity of the antibodies for the human Nectin-4 extracellular antigen was detected by surface plasmon resonance (SPR) technique (BIAcore: GE Healthcare, T200).

B1: 10F4-2H5 scFv (scFv, V domains shown)
VH: EVQLVESGGGLVQPGGSLRLSCAASGYIFTNYWMSWVRQAPGKGLEWVSSIDQGSGNIFYADSVKGRFTISRDNSKNTLYLQMNSLRAEDTAVYYCAREYSDVVDYVSVRTPLDYWGQGTLVTVSS
VL: DIQMTQSPSSLSASVGDRVTITCRASQGISSYLAWYQQKPGKAPKLLIYAASSLQSGVPSRFSGSGSGTDFTLTISSLQPEDFATYYCQQHYTTPPTFGQGTKVEIKR
notes: phage clone supernatant
For B1, the OD value [1] was 1.44 OD.

B2: 10F4-1E1 scFv (scFv, V domains shown)
VH: EVQLVESGGGLVQPGGSLRLSCAASGDIFGNYWMSWVRQAPGKGLEWVSSIDASSGNRFYADSVKGRFTISRDNSKNTLYLQMNSLRAEDTAVYYCAREYSDVVDYVSVRTPLDYWGQGTLVTVSS
VL: DIQMTQSPSSLSASVGDRVTITCRASQGISSYLAWYQQKPGKAPKLLIYAASSLQSGVPSRFSGSGSGTDFTLTISSLQPEDFATYYCQQHYTTPPTFGQGTKVEIKR
notes: phage clone supernatant
B2 was tested, and the OD value [1] was 1.63 OD.

B3: 10F4-2B11 scFv (scFv, V domains shown)
VH: EVQLVESGGGLVQPGGSLRLSCAASGGSFTNYWMSWVRQAPGKGLEWVSVIDSTGSNRFYADSVKGRFTISRDNSKNTLYLQMNSLRAEDTAVYYCAREYSDVVDYVSVRTPLDYWGQGTLVTVSS
VL: DIQMTQSPSSLSASVGDRVTITCRASQGISSYLAWYQQKPGKAPKLLIYAASSLQSGVPSRFSGSGSGTDFTLTISSLQPEDFATYYCQQHYTTPPTFGQGTKVEIKR
notes: phage clone supernatant
B3 was tested, and the OD value [1] was 1.55 OD.

B4: 10F4-1C7 scFv (scFv, V domains shown)
VH: EVQLVESGGGLVQPGGSLRLSCAASGDSFDNYWMSWVRQAPGKGLEWVSAIDTHSDNSFYADSVKGRFTISRDNSKNTLYLQMNSLRAEDTAVYYCAREYSDVVDYVSVRTPLDYWGQGTLVTVSS
VL: DIQMTQSPSSLSASVGDRVTITCRASQGISSYLAWYQQKPGKAPKLLIYAASSLQSGVPSRFSGSGSGTDFTLTISSLQPEDFATYYCQQHYTTPPTFGQGTKVEIKR
notes: phage clone supernatant
Binder B4 has an OD value [1] of 1.57 OD.

B5: antibody 1F3-1F4 (antibody, human IgG1, kappa, V domains shown)
VH: EVQLVESGGGLVQPGGSLRLSCAASGDIFTGSSMSWVRQAPGKGLEWVSGIYASGSDKRYADSVKGRFTISRDNSKNTLYLQMNSLRAEDTAVYYCARAELLAFDVYTASDYWGQGTLVTVSS
VL: DIQMTQSPSSLSASVGDRVTITCRASQGISSYLAWYQQKPGKAPKLLIYAASSLQSGVPSRFSGSGSGTDFTLTISSLQPEDFATYYCQQHYTTPPTFGQGTKVEIKR
B5 gave an EC50 [2] of 9 ng/mL.

B6: 10F4-1F1 scFv (scFv, V domains shown)
VH: EVQLVESGGGLVQPGGSLRLSCAASGFSFSNYWMSWVRQAPGKGLEWVSAISPGDGTIFYADSVKGRFTISRDNSKNTLYLQMNSLRAEDTAVYYCAREYSDVVDYVSVRTPLDYWGQGTLVTVSS
VL: DIQMTQSPSSLSASVGDRVTITCRASQGISSYLAWYQQKPGKAPKLLIYAASSLQSGVPSRFSGSGSGTDFTLTISSLQPEDFATYYCQQHYTTPPTFGQGTKVEIKR
notes: phage clone supernatant
B6 gave an OD value [1] of 1.63 OD.

B7: 10F4-2C2 scFv (scFv, V domains shown)
VH: EVQLVESGGGLVQPGGSLRLSCAASGFNFSNYWMSWVRQAPGKGLEWVSVIDAHSANIRYADSVKGRFTISRDNSKNTLYLQMNSLRAEDTAVYYCAREYSDVVDYVSVRTPLDYWGQGTLVTVSS
VL: DIQMTQSPSSLSASVGDRVTITCRASQGISSYLAWYQQKPGKAPKLLIYAASSLQSGVPSRFSGSGSGTDFTLTISSLQPEDFATYYCQQHYTTPPTFGQGTKVEIKR
notes: phage clone supernatant
B7 showed an OD value [1] of 1.58 OD.

B8: 1G8-1C12 scFv (scFv, V domains shown)
VH: EVQLVESGGGLVQPGGSLRLSCAASGGSFYGFGMSWVRQAPGKGLEWVSGIYSHDADKRYADSVKGRFTISRDNSKNTLYLQMNSLRAEDTAVYYCARQTEDRSYGYDLDYWGQGTLVTVSS
VL: DIQMTQSPSSLSASVGDRVTITCRASQGISSYLAWYQQKPGKAPKLLIYAASSLQSGVPSRFSGSGSGTDFTLTISSLQPEDFATYYCQQHYTTPPTFGQGTKVEIKR
notes: phage clone supernatant
Work on B8 yielded an OD value [1] of 1.42 OD.

B9: 10F4-1B9 scFv (scFv, V domains shown)
VH: EVQLVESGGGLVQPGGSLRLSCAASGFNFDNYYMSWVRQAPGKGLEWVSSIYQTDASIFYADSVKGRFTISRDNSKNTLYLQMNSLRAEDTAVYYCAREYSDVVDYVSVRTPLDYWGQGTLVTVSS
VL: DIQMTQSPSSLSASVGDRVTITCRASQGISSYLAWYQQKPGKAPKLLIYAASSLQSGVPSRFSGSGSGTDFTLTISSLQPEDFATYYCQQHYTTPPTFGQGTKVEIKR
notes: phage clone supernatant
In the case of B9, the OD value [1] is reported as 1.5 OD.

B10: antibody 1F3-2D2 (antibody, human IgG1, kappa, V domains shown)
VH: EVQLVESGGGLVQPGGSLRLSCAASGFNFSSYGMSWVRQAPGKGLEWVSRISPYTGTTHYADSVKGRFTISRDNSKNTLYLQMNSLRAEDTAVYYCARAELLAFDVYTASDYWGQGTLVTVSS
VL: DIQMTQSPSSLSASVGDRVTITCRASQGISSYLAWYQQKPGKAPKLLIYAASSLQSGVPSRFSGSGSGTDFTLTISSLQPEDFATYYCQQHYTTPPTFGQGTKVEIKR
For B10, the EC50 [2] was 15 ng/mL.

B11: antibody 1F3-1D12 (antibody, human IgG1, kappa, V domains shown)
VH: EVQLVESGGGLVQPGGSLRLSCAASGYNFTDYGMSWVRQAPGKGLEWVSGISGSGDNKYYADSVKGRFTISRDNSKNTLYLQMNSLRAEDTAVYYCARAELLAFDVYTASDYWGQGTLVTVSS
VL: DIQMTQSPSSLSASVGDRVTITCRASQGISSYLAWYQQKPGKAPKLLIYAASSLQSGVPSRFSGSGSGTDFTLTISSLQPEDFATYYCQQHYTTPPTFGQGTKVEIKR
B11 gave an EC50 [2] of 7 ng/mL.

B12: antibody 1F3-1C4 (antibody, human IgG1, kappa, V domains shown)
VH: EVQLVESGGGLVQPGGSLRLSCAASGFTFGDYGMSWVRQAPGKGLEWVSGIKPWGSGTYYADSVKGRFTISRDNSKNTLYLQMNSLRAEDTAVYYCARAELLAFDVYTASDYWGQGTLVTVSS
VL: DIQMTQSPSSLSASVGDRVTITCRASQGISSYLAWYQQKPGKAPKLLIYAASSLQSGVPSRFSGSGSGTDFTLTISSLQPEDFATYYCQQHYTTPPTFGQGTKVEIKR
Work on B12 yielded an EC50 [2] of 11 ng/mL.

B13: antibody 1G8-2H4 (antibody, human IgG1, kappa, V domains shown)
VH: EVQLVESGGGLVQPGGSLRLSCAASGDSFTGYAMSWVRQAPGKGLEWVSAISGSGGSTYYADSVKGRFTISRDNSKNTLYLQMNSLRAEDTAVYYCARQTEDRSYGYDLDYWGQGTLVTVSS
VL: DIQMTQSPSSLSASVGDRVTITCRASQGISSYLAWYQQKPGKAPKLLIYAASSLQSGVPSRFSGSGSGTDFTLTISSLQPEDFATYYCQQHYTTPPTFGQGTKVEIKR
For B13, the EC50 [2] was 39 ng/mL.

B14: 10F4-3 scFv (scFv, V domains shown)
VH: EVQLVESGGGLVQPGGSLRLSCAASGFSFGDFAMSWVRQAPGKGLEWVSVIDGHTAYNSYADSVKGRFTISRDNSKNTLYLQMNSLRAEDTAVYYCAREYSDVVDYVSVRTPLDYWGQGTLVTVSS
VL: DIQMTQSPSSLSASVGDRVTITCRASQGISSYLAWYQQKPGKAPKLLIYAASSLQSGVPSRFSGSGSGTDFTLTISSLQPEDFATYYCQQHYTTPPTFGQGTKVEIKR
notes: phage clone supernatant
Binder B14 has an OD value [1] of 1.32 OD.

B15: antibody 1F3-1E4 (antibody, human IgG1, kappa, V domains shown)
VH: EVQLVESGGGLVQPGGSLRLSCAASGFSFGTYGMSWVRQAPGKGLEWVSRISGDSANIRYADSVKGRFTISRDNSKNTLYLQMNSLRAEDTAVYYCARAELLAFDVYTASDYWGQGTLVTVSS
VL: DIQMTQSPSSLSASVGDRVTITCRASQGISSYLAWYQQKPGKAPKLLIYAASSLQSGVPSRFSGSGSGTDFTLTISSLQPEDFATYYCQQHYTTPPTFGQGTKVEIKR
B15 showed a Kd [3] of 0.426 nM, a koff [3] of 0.000825 s⁻¹ and a kon [3] of 1.94e+06 M⁻¹ s⁻¹.

B16: 10F4-5 scFv (scFv, V domains shown)
VH: EVQLVESGGGLVQPGGSLRLSCAASGFIFDGYDMSWVRQAPGKGLEWVSVIKDHGGYKFYADSVKGRFTISRDNSKNTLYLQMNSLRAEDTAVYYCAREYSDVVDYVSVRTPLDYWGQGTLVTVSS
VL: DIQMTQSPSSLSASVGDRVTITCRASQGISSYLAWYQQKPGKAPKLLIYAASSLQSGVPSRFSGSGSGTDFTLTISSLQPEDFATYYCQQHYTTPPTFGQGTKVEIKR
notes: phage clone supernatant
Binder B16 has an OD value [1] of 1.31 OD.

B17: antibody 1G8-2H8 (antibody, human IgG1, kappa, V domains shown)
VH: EVQLVESGGGLVQPGGSLRLSCAASGDIFGSYAMSWVRQAPGKGLEWVSAISGSGGSTYYADSVKGRFTISRDNSKNTLYLQMNSLRAEDTAVYYCARQTEDRSYGYDLDYWGQGTLVTVSS
VL: DIQMTQSPSSLSASVGDRVTITCRASQGISSYLAWYQQKPGKAPKLLIYAASSLQSGVPSRFSGSGSGTDFTLTISSLQPEDFATYYCQQHYTTPPTFGQGTKVEIKR
B17 was tested, and the EC50 [2] was 5 ng/mL.

B18: antibody 1G8-1C10 (antibody, human IgG1, kappa, V domains shown)
VH: EVQLVESGGGLVQPGGSLRLSCAASGFNFSDYSMSWVRQAPGKGLEWVSRIKASSGGSDYADSVKGRFTISRDNSKNTLYLQMNSLRAEDTAVYYCARQTEDRSYGYDLDYWGQGTLVTVSS
VL: DIQMTQSPSSLSASVGDRVTITCRASQGISSYLAWYQQKPGKAPKLLIYAASSLQSGVPSRFSGSGSGTDFTLTISSLQPEDFATYYCQQHYTTPPTFGQGTKVEIKR
Binder B18 has an EC50 [2] of 5 ng/mL.

B19: antibody 1G8-2F11 (antibody, human IgG1, kappa, V domains shown)
VH: EVQLVESGGGLVQPGGSLRLSCAASGYTFGSNAMSWVRQAPGKGLEWVSRISPDSSGISYADSVKGRFTISRDNSKNTLYLQMNSLRAEDTAVYYCARQTEDRSYGYDLDYWGQGTLVTVSS
VL: DIQMTQSPSSLSASVGDRVTITCRASQGISSYLAWYQQKPGKAPKLLIYAASSLQSGVPSRFSGSGSGTDFTLTISSLQPEDFATYYCQQHYTTPPTFGQGTKVEIKR
Work on B19 yielded an EC50 [2] of 4 ng/mL.
